The test deals with T1, IL-2Rβ ectodomain (SPR, Figure 4A) (human, UniProt P14784 27-240).
T1 chain: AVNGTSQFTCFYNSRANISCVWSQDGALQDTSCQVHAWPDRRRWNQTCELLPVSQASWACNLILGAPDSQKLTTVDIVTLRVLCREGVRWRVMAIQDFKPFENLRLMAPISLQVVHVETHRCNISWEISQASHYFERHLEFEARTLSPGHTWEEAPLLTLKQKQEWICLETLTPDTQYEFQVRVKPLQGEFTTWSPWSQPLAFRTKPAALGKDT
In words: SPR. (In general: In SPR one partner is held on a chip, and binding of the other changes the refractive index at the surface.)

B1: Super-2 (ligand)
chain: APTSSSTKKTQLQLEHLLLDLQMILNGINNYKNPKLTRMLTFKFYMPKKATELKHLQCLEEELKPLEEVLNLAQSKNFHFDPRDVVSNINVFVLELKGSETTFMCEYADETATIVEFLNRWITFCQSIISTLT
The molecule B1 yielded a Kd of 3.3 nM. In other words, the single-digit nanomolar range.

The Kd is the equilibrium constant for the complex coming apart.

For the origin of these results see publication PMC6755802 (2019).
